What was measured:
Assay in all cases: SPOT array
Myo5, Q04439 = biological target: T1, Myo5, Q04439; conditions: median of control spots 471
T1 sequence (Q04439 1072-1160, looked up): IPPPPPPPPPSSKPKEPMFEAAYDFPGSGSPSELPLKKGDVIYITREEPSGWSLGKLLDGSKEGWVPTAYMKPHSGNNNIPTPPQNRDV

Lsb1, P53281 = biological target: T2, Lsb1, P53281; conditions: median of control spots 388
T2 sequence (P53281 45-122, looked up): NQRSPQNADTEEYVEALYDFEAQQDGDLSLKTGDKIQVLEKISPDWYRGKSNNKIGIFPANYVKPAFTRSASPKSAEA

Hof1, Q05080 = biological target: T3, Hof1, Q05080; conditions: median of control spots 4086
T3 sequence (Q05080 590-669, looked up): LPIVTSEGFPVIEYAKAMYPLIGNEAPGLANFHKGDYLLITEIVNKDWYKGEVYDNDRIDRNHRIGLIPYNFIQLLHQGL

Bzz1-1, P38822 = biological target: T4, Bzz1-1, P38822; conditions: median of control spots 4446
T4 sequence (P38822 478-572, looked up): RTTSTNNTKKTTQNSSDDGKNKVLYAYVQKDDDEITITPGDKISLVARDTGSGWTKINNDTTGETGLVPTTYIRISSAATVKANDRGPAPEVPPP

Pin3, Q06449 = biological target: T5, Pin3, Q06449; conditions: median of control spots 2171
T5 sequence (Q06449 53-122, looked up): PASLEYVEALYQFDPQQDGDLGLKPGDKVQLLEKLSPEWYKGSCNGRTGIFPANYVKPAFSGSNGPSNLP

Rvs167, P39743 = conditions: median of control spots 2707
Lsb4, P32793 = biological target: T6, Lsb4, P32793; conditions: median of control spots 397
T6 sequence (P32793 402-468, looked up): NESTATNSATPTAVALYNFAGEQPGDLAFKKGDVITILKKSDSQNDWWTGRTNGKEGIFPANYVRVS

Pex13, P80667 = biological target: T7, Pex13, P80667; conditions: median of control spots 1341
T7 sequence (P80667 295-386, looked up): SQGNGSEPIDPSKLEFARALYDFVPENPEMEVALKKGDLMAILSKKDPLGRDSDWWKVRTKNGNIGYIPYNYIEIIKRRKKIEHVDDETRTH

Hse1, P38753 = biological target: T8, Hse1, P38753; conditions: median of control spots 1727
T8 sequence (P38753 208-285, looked up): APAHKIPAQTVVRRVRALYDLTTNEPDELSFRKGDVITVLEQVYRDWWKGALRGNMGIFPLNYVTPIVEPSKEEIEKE

Bem1-1, P29366 = conditions: median of control spots 4282
Sla1-2, P32790 = biological target: T9, Sla1-2, P32790; conditions: median of control spots 712
T9 sequence (P32790 60-140, looked up): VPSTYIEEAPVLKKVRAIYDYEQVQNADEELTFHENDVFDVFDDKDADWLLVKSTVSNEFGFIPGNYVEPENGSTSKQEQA

Bem1-2, P29366 = conditions: median of control spots 4347
Lsb3, P43603 = biological target: T10, Lsb3, P43603; conditions: median of control spots 406
T10 sequence (P43603 385-451, looked up): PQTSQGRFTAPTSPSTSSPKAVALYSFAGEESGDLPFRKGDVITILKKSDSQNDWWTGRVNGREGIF

Sho1, P40073 = conditions: median of control spots 1148
Boi2, P39969 = biological target: T11, Boi2, P39969; conditions: median of control spots 1161
T11 sequence (P39969 32-116, looked up): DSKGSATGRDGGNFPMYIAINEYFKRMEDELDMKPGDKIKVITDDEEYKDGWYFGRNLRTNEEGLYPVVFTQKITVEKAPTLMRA

Cdc25, P04821 = biological target: T12, Cdc25, P04821; conditions: median of control spots 969
T12 sequence (P04821 50-136, looked up): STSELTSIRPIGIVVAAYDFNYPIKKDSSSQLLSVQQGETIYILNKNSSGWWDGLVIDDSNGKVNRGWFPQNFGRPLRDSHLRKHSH

Bzz1-2, P38822 = biological target: T13, Bzz1-2, P38822; conditions: median of control spots 4538
T13 sequence (P38822 568-633, looked up): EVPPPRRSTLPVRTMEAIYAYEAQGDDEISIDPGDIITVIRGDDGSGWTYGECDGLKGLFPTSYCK

Fus1, P11710 = biological target: T14, Fus1, P11710; conditions: median of control spots 1200
T14 sequence (P11710 432-512, looked up): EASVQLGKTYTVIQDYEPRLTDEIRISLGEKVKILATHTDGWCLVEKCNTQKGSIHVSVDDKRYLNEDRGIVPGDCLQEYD

GST = conditions: median of control spots 978
Abp1, P15891 = biological target: T15, Abp1, P15891; conditions: median of control spots 935
T15 sequence (P15891 535-592, looked up): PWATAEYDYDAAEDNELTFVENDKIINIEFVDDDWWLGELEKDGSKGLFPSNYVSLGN

Myo3, P36006 = conditions: median of control spots 468
Sla1-3, P32790 = biological target: T16, Sla1-3, P32790; conditions: median of control spots 5475
T16 sequence (P32790 344-424, looked up): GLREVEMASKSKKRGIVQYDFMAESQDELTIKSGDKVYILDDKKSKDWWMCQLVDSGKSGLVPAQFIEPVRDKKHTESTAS

Boi1, P38041 = biological target: T17, Boi1, P38041; conditions: median of control spots 1162
T17 sequence (P38041 1-86, looked up): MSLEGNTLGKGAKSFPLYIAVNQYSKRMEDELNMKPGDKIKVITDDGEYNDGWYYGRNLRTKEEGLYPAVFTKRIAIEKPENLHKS

Bbc1, P47068 = biological target: T18, Bbc1, P47068; conditions: median of control spots 796
T18 sequence (P47068 1-78, looked up): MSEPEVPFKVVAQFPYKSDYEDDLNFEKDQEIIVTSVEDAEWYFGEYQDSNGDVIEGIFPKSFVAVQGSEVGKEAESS

Bud14, P27637 = biological target: T19, Bud14, P27637; conditions: median of control spots 956
T19 sequence (P27637 247-328, looked up): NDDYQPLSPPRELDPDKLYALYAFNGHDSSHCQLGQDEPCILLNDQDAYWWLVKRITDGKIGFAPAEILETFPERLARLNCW

Nbp2, Q12163 = biological target: T20, Nbp2, Q12163; conditions: median of control spots 357
T20 sequence (Q12163 103-180, looked up): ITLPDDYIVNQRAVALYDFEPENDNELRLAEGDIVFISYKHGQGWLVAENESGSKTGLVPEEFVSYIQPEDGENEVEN

Cyk3, Q07533 = biological target: T21, Cyk3, Q07533; conditions: median of control spots 1451
T21 sequence (Q07533 1-83, looked up): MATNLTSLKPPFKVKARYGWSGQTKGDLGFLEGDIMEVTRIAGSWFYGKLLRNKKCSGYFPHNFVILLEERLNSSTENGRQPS

Sequence of Bem1-1, P29366 (P29366 55-141): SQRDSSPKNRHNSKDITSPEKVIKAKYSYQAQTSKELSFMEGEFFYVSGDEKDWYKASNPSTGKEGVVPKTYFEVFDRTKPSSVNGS
Sequence of Bem1-2, P29366 (P29366 139-227): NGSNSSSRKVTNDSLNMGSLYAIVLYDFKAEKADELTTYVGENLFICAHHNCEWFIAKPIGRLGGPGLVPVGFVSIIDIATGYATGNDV
Sequence of Sho1, P40073 (P40073 287-367): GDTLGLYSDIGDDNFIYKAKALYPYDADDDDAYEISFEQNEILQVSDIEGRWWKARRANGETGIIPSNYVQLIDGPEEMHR
Sequence of Rvs167, P39743 (P39743 419-482): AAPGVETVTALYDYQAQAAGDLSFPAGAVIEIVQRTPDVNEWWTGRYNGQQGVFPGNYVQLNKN

B1: unnamed (peptide)
chain: RKNRAPPQRPRFNRE
Myo5, Q04439
  SPOT intensity: 5
Lsb1, P53281
  SPOT intensity: 390
Hof1, Q05080
  SPOT intensity: 6
Bzz1-1, P38822
  SPOT intensity: 8
Pin3, Q06449
  SPOT intensity: 12
Rvs167, P39743
  SPOT intensity: 4
Lsb4, P32793
  SPOT intensity: 49
Pex13, P80667
  SPOT intensity: 14
Hse1, P38753
  SPOT intensity: 25
Bem1-1, P29366
  SPOT intensity: 0
Sla1-2, P32790
  SPOT intensity: 4
Bem1-2, P29366
  SPOT intensity: 65
Lsb3, P43603
  SPOT intensity: 30
Sho1, P40073
  SPOT intensity: 178
Boi2, P39969
  SPOT intensity: 3
Cdc25, P04821
  SPOT intensity: 30
Bzz1-2, P38822
  SPOT intensity: 77
Fus1, P11710
  SPOT intensity: 14
GST
  SPOT intensity: 4
Abp1, P15891
  SPOT intensity: 235
Myo3, P36006
  SPOT intensity: 51
Sla1-3, P32790
  SPOT intensity: 379
Boi1, P38041
  SPOT intensity: 8
Bbc1, P47068
  SPOT intensity: 362
Bud14, P27637
  SPOT intensity: 15
Nbp2, Q12163
  SPOT intensity: 240
Cyk3, Q07533
  SPOT intensity: 4

B2: unnamed (peptide)
chain: RKNRAPPQRPRFNRD
Myo5, Q04439
  SPOT intensity: 3
Lsb1, P53281
  SPOT intensity: 670
Hof1, Q05080
  SPOT intensity: 8
Bzz1-1, P38822
  SPOT intensity: 11
Pin3, Q06449
  SPOT intensity: 9
Rvs167, P39743
  SPOT intensity: 2
Lsb4, P32793
  SPOT intensity: 75
Pex13, P80667
  SPOT intensity: 10
Hse1, P38753
  SPOT intensity: 23
Bem1-1, P29366
  SPOT intensity: 0
Sla1-2, P32790
  SPOT intensity: 3
Bem1-2, P29366
  SPOT intensity: 104
Lsb3, P43603
  SPOT intensity: 68
Sho1, P40073
  SPOT intensity: 262
Boi2, P39969
  SPOT intensity: 7
Cdc25, P04821
  SPOT intensity: 40
Bzz1-2, P38822
  SPOT intensity: 91
Fus1, P11710
  SPOT intensity: 26
GST
  SPOT intensity: 4
Abp1, P15891
  SPOT intensity: 298
Myo3, P36006
  SPOT intensity: 61
Sla1-3, P32790
  SPOT intensity: 353
Boi1, P38041
  SPOT intensity: 12
Bbc1, P47068
  SPOT intensity: 535
Bud14, P27637
  SPOT intensity: 18
Nbp2, Q12163
  SPOT intensity: 490
Cyk3, Q07533
  SPOT intensity: 12

B3: unnamed (peptide)
chain: IHTRRPSSTSQYLIR
Myo5, Q04439
  SPOT intensity: 1
Lsb1, P53281
  SPOT intensity: 0
Hof1, Q05080
  SPOT intensity: 11
Bzz1-1, P38822
  SPOT intensity: 0
Pin3, Q06449
  SPOT intensity: 25
Rvs167, P39743
  SPOT intensity: 0
Lsb4, P32793
  SPOT intensity: 2
Pex13, P80667
  SPOT intensity: 11
Hse1, P38753
  SPOT intensity: 22
Bem1-1, P29366
  SPOT intensity: 9
Sla1-2, P32790
  SPOT intensity: 0
Bem1-2, P29366
  SPOT intensity: 43
Lsb3, P43603
  SPOT intensity: 0
Sho1, P40073
  SPOT intensity: 28
Boi2, P39969
  SPOT intensity: 0
Cdc25, P04821
  SPOT intensity: 10
Bzz1-2, P38822
  SPOT intensity: 7
Fus1, P11710
  SPOT intensity: 233
GST
  SPOT intensity: 0
Abp1, P15891
  SPOT intensity: 27
Myo3, P36006
  SPOT intensity: 1
Sla1-3, P32790
  SPOT intensity: 21
Boi1, P38041
  SPOT intensity: 2
Bbc1, P47068
  SPOT intensity: 6
Bud14, P27637
  SPOT intensity: 4
Nbp2, Q12163
  SPOT intensity: 0
Cyk3, Q07533
  SPOT intensity: 1
